1 molecule from patent US20050042209A1, “MUC1 extracellular domain and cancer treatment compositions and methods derived therefrom” (priority 2000, published 2005) can be followed below.

This assay concerns HCT116 cells. Nature of the assay: Apoptosis (sub-G1 DNA, TUNEL) in HCT116 transfectants. The format is cell-based, human. The settings on record: FIG. 19. The procedure:
Methods. Apoptotic cells were quantified by analysis of sub-G1 DNA and TUNEL staining. To assess sub-G1 DNA content, cells were harvested, washed with PBS, fixed with 80% ethanol, and incubated in PBS containing 20 ng/ml RNase (Roche) for 60 min at 37° C. Cells were then stained with […] propidium iodide (Sigma) for 30 min at room temperature in the dark. DNA content was analyzed by flow cytometry (EPICS XL-MCL, Coulter Corp.). Apoptotic cells with DNA fragmentation were detected by staining with the In Situ cell death detection kit (TUNEL; Roche Applied Science) and visualized by confocal microscopy (ZEISS LSM510). After staining, cells were analyzed by flow cytometry. Other experimental procedures and methods were as described in Example 15.
Results. To determine if MUC1 affects the induction of apoptosis by CDDP, cells were analyzed for sub-G1 DNA content. […] Stimulation of cell surface death receptors with TNF-α or the TNF-related apoptosis inducing factor TRAIL is associated with activation of the extrinsic apoptotic pathway. To determine if MUC1 affects death receptor-induced apoptosis, HCT116 cells were treated with TNF-α.

B1: TRAIL: TNF-related apoptosis inducing factor TRAIL, rhTRAIL (Calbiochem-Novabiochem) (protein, UniProt P50591 1-281, looked up)
Tumor necrosis factor ligand …: MAMMEVQGGPSLGQTCVLIVIFTVLLQSLCVAVTYVYFTNELKQMQDKYSKSGIACFLKEDDSYWDPNDEESMNSPCWQVKWQLRQLVRKMILRTSEETISTVQEKQQNISPLVRERGPQRVAAHITGTRGRSNTLSSPNSKNEKALGRKINSWESSRSGHSFLSNLHLRNGELVIHEKGFYYIYSQTYFRFQEEIKENTKNDKQMVQYIYKYTSYPDPILLMKSARNSCWSKDAEYGLYSIYQGGIFELKENDRIFVSVTNEHLIDMDHEASFFGAFLVG
Consider B1, for which the “TRAIL-induced apoptosis, effect of MUC1” value (HCT116/MUC1 cells) is listed as “attenuated this response”. In addition, the apoptosis result (HCT116/vector cells, 100 ng/ml TRAIL without CHX) was “effective in inducing apoptosis”.
